Test results taken from patent US20220112303A1 (ICHILOV TECH, published 2022).

Tests used:
[1] = biological target: T1, CD24 on human cells (HT29, colo257, Panc-1, sh-sy5y, PBMCs) (human, UniProt P25063 27-59); experiment: whole cell ELISA and flow cytometry on HT29 cells (HCT116 as low-CD24 control)
T1 construct: whole, on cells; also called CD24-positive cells
T1 chain (looked up): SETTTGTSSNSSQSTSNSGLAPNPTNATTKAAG

[2] = biological target: T2, CD24 antigen (UniProt P25063 27-59); experiment: Biacore SPR
T2 chain: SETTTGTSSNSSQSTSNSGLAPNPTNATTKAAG

B1: humanized matured NS17 anti-CD24 antibody (antibody, V domains shown)
VH: QVHLQESGPGLVKPSQTLSLTCAVSGYSISSGYTWHWIRQPPGKTVEWIGYIQYTGSTRYNPALRGRLTMSVDTSKNQFSLKLISVTAADTGVYFCARGTTASFDYWGQGTTVTVSS
VL: DIVMTQSPDSLNVSLGERATIRCRSSQSLLYSSDQKNYLTWYQQKPGQPPKLLISWASPRASGVPDRFSGSGSGTDFTLTISSLQAEDVGVYYCQQYFIYPLTFGVGTKLELK
notes: Tested as whole IgG with human CH1-CH3 and Ck, expressed from the pcDNA4-PCMV-TetO2-IgL-PCMV-TetO2-IgH vector; also called matured antibody
binding result [1]: binds
Kd [2]: 18 nM
